According to the nanobody polyreactivity screen of Harvey et al. (2022):

Assay: yeast display, Sf9 membrane polyspecificity reagent, FACS + sequencing; frameworks hold sequencing errors
How it was run: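 Polyreactivity labels are assigned by the sorting gate from which each nanobody was recovered. The gates were low and high (top ~1%), set on anti-HA fluorescence for expression and streptavidin fluorescence for reagent binding. Before sorting, galactose-induced (36–48 hours) yeast display cells were stained for 1 hour at 4 °C with 10% biotinylated, detergent-solubilized Sf9 membrane reagent.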

Row | Sequence | polyreactivity (PSR sort gate)
1 | QVQLVESGGGLVQAGGSLRLSCAASGSIFWNNAMGWYRQAPGKERELVAGISSAGSTNYADSVKGRFTISRDNAKNTVYLQMNILKPEDTAVYYCAAVYYGGFSDYDYWGQGTQVTVSS | low polyreactivity
2 | QDQLVESGGGIVQAGGRLRLSCAASGSIFRYYAMGWYRQAPGKERDLVAAINWDGGSTYYADSVKGRFTISRDNAKNTVYLQMNSLKPEDTAVYYCATTSRVYAYGYRTSNYWGQGTQVTVSS | high polyreactivity
3 | QDQLVESGGGLVQAGGSLRLSCAASGRILAYYAMGWSRQAPGKERELVAAISRAGSTNYADSVKGRFTISRDNAKNTVYLQMNSLKPEDTAVYYCAARPYRRGYNYWGQGTQVTVSS | high polyreactivity
4 | QVQLVESGGGLVQAGGSLRLSCAASGSIFEPNAMGWYRQAPGTERELVAAISWNDGDTYYADSVKGRFTISRDNAKNTVYFQMNSLKPEDPAVYYCAAAISLYSYDYWGQGTQVTVSS | low polyreactivity
5 | QVQLVESGGGLVQAGGSLRLSCAASGRTFTSNAMGWYRQAPGKEREFVAAITRSTGSTNYADSVKGRFTISRDNAKNTVYLQMNSLKPEDTAVYYCNAYLYYKGRYSRQYYYWGQGTQVTVSS | high polyreactivity
6 | QVQLVESGGGLVQAGGSLRLSCAASGYTLDGYAMGWYRQAPGKEREFVAAIPFRGGGTYYADSVKGRFTISRDNAKNTDYLQMNSLKPEDTAVYYCNADTYDPFPWGSDYWGQGTQVTVSS | high polyreactivity
7 | QVQLVESGGGLVQAGGSLRLSCAASGIIFQPYAMGWYRQAPGKERELVAAITYSGDGTFYADSVKGRFTISRDNAKNTVYLQMNSLKPEDTAVYYCAAYPRDPYKEYDYWGQGTQVTVSS | low polyreactivity
8 | QVQLVESGGGLVQAGGSLRLSCAASGNIFFSNAMGWYRQAPGKERELLASISQSGGSTYYADSVKGRFTISRDNAKNTVYLQMNSLKPEDTAVYYCAATQVRRGPAWGRDYWGQGTQVTVSS | low polyreactivity
9 | QVQLVESGVGLVQARGSLPLSCAASGSIFYYYVMGWYRQAPGKERELVAAIRSSGTSTYYADSVKGRFTISRDNAKNTVYLQRNSLKPEDTAVYYCNRARSSSRYDYWGQGTQVTVSS | low polyreactivity
10 | QVQLVESGGGLVQAGGSLRLSCAASGSTFQAKAMGWYRQAPGKERELVAAISWRGSSTYYADSVKGRFTISRDNAKNTVYLQMNSLKPEDPAVYYCAAASSGSYYRYEYWGQGTQVTVSS | high polyreactivity
11 | QVQLVESGGGLVQAGGSLRLSCAASGSTFNKYTMGWYRQAPGKERELVAAITSGDSTYYADSVKGRFTISRDNAKNTVYLQMNSLKPEDTAVYYCAKSLRAYRHVIYGKPFYSWGQGTQVTVSS | low polyreactivity
12 | QVQLVESGGGLVQAGGSLRLSCAASGSTVYYNAMGWYRQAPGKERELVAAISRSGGRTYYADSVKGRFTISRDNAKNTVYLQMNSLKPEDTAVYYCAADAPGHEYYYWGQGTQVTVSS | high polyreactivity
13 | QVQLVESGGGLVQAGGSLRLICAASGRILYTYAMGWYRQAPGKERELVAGISRGGRTYYADSVKGRFTISRDNAKNTVYLQMNSLKPEDTAVYYCAARLQYGIQYRYDYWGQGTLVTVSS | high polyreactivity
14 | QVQLVESGGGLVQAGGSLRLSCAASGRIFSRYAMGWYRQAPGKERELVAAITYSGGSTYYADSVKGRFTISRDNAKNTVYLQMNSLKPEDTAVYYCNAATYGGRYYYWGQGTQVTVSS | high polyreactivity
15 | QVQHVESGGCLVQAGRSLRLSCAASGRTFFPYGMGWDRQAPAKEREFVATISWSGGSTHYADSVKGRFTISRDNAKYTVYLEMNSLKPEDTAVYFCAAGNSLYWYNSGNYWGQGTQVTVSS | low polyreactivity
16 | QVQLVESGGGLVQAGGSLRLSCAASGRTSWYYAMGWYRQAPGNERELVATITRSTGSTYYADSVKGRFTISRDNAKNTVYLQMNCLKPEDTAVYDCARLYYFNGDYWGQGTQVTVSS | high polyreactivity
17 | QVQLVESGGGLVQAGGSLRLSCAASGSTFFPYAMGWYRQAPGKERELVAAITSGGRTKYADSVKGRFTISRDNAMNTVYLQMNSLKPEDTAVYYCAARGLIKEYGGPYRRFGYWGQGTQVTVSS | high polyreactivity
